Experimental data: article PMC4175578

Target: N-terminal domain (residues 1-79) of HCV glycoprotein E1 ectodomain, N43Q (Hepatitis C virus, strain H77)
Assay: SEC-MALS; analytical Superdex S200 10/30 with online static light scattering; protein not deglycosylated, ~4.2 mg/ml

N-terminal domain (residues 1-79) of HCV glycoprotein E1 ectodomain, N43Q (domain or fragment)
stoichiometry N: 2
